In the supplement of paper PMC10567573:

B1: C1orf137 (parent)
chain: LPQETNLTLKVCKPQAPQKLDPTL

Variants of: B1
Assay: protein stability index of a GFP-peptide fusion (GPS, HEK-293T) (PSI 1-6); higher = more stable
Conditions: c terminus: a fixed tail appended
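Further: lentivirally expressed fusions sorted by FACS into six bins by GFP to DsRed ratio, PSI derived from sequencing read proportions per bin multiplied by bin number.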

Point of comparison: K13W, protein stability index 2.25. Against it:
- A16S — higher, 4.02
- A16K — higher, 4.15
- A16N — higher, 4.04
- A16I — higher, 3.56
- A16M — higher, 3.54
- A16V — higher, 3.94
- A16F — higher, 2.92
- A16W — lower, 2.02
- A16D — higher, 4.41
- A16R — higher, 3.58
- A16P — higher, 3.62
- A16E — higher, 4.45
- A16G — higher, 3.98
- A16Q — higher, 3.96
- A16H — higher, 4.14
- A16C — higher, 3.6
- A16T — higher, 4.07
- A16L — higher, 3.69
- A16Y — higher, 3.38
- C12H — higher, 4.66
- C12M — higher, 4.07
- C12P — higher, 4.73
- C12A — higher, 5.06
- C12K — higher, 4.43
- C12E — higher, 4.39
- C12G — higher, 4.81
- C12D — higher, 4.79
- C12Q — higher, 4.1
- C12W — higher, 4.28
- C12S — higher, 4.07
- C12F — higher, 3.7
- C12N — higher, 4.31
- C12L — higher, 4.06
- C12V — higher, 3.65
- C12R — higher, 4.14
- C12T — higher, 4.62
- C12Y — higher, 3.64
- C12I — higher, 3.9
- Q15G — higher, 3.93
- Q15C — higher, 3.58
- Q15N — higher, 4.04
- Q15S — higher, 3.86
- Q15D — higher, 4.49
- Q15Y — higher, 2.64
- Q15I — higher, 3.03
- Q15R — higher, 3.69
- Q15M — higher, 3.28
- Q15T — higher, 4.08
- Q15F — higher, 2.69
- Q15K — higher, 3.69
- Q15W — higher, 3.5
- Q15H — higher, 3.65
- Q15E — higher, 4.41
- Q15L — higher, 2.96
- Q15V — higher, 3.65
- Q15A — higher, 3.91
- L9I — higher, 4
- L9Q — higher, 4.59
- L9K — higher, 4.16
- L9N — higher, 4.54
- L9W — higher, 3.15
- L9M — higher, 4.03
- L9S — higher, 3.63
- L9V — higher, 4.14
- L9H — higher, 3.78
- L9P — higher, 3.69
- L9G — higher, 4.32
- L9R — higher, 4.58
- L9T — higher, 4.67
- L9Y — higher, 4.35
- L9F — higher, 4.05
- L9E — higher, 4.76
- V11C — higher, 3.96
- V11P — higher, 4.54
- V11S — higher, 4.19
- V11I — higher, 3.24
- V11N — higher, 4.21
- V11L — higher, 3.55
- V11D — higher, 4.91
- V11F — higher, 3.22
- V11E — higher, 5.09
- V11H — higher, 4.08
- V11W — higher, 2.44
- V11A — higher, 4.12
- V11Q — higher, 3.32
- V11T — higher, 3.66
- V11Y — higher, 3.82
- V11R — higher, 3.05
- V11K — higher, 3.65
- V11G — higher, 3.42
- V11M — higher, 3.77
- P14C — higher, 3.02
- P14M — higher, 3.08
- P14V — higher, 3.55
- P14K — higher, 4.1
- P14E — higher, 4.71
- P14L — higher, 2.81
- P14W — higher, 3.47
- P14I — higher, 2.76
- P14R — higher, 4.27
- P14Q — higher, 4.41
- P14A — higher, 3.59
- P14T — higher, 4.16
- P14F — higher, 2.71
- P14S — higher, 4.27
- P14N — higher, 4.72
- P14H — higher, 4.07
- P14G — higher, 4.55
- P14D — higher, 4.76
- P14Y — higher, 3.37
- P17I — higher, 4
- P17Y — higher, 3.57
- P17L — higher, 3.07
- P17C — higher, 3.51
- P17E — higher, 4.27
- P17H — higher, 3.58
- P17D — higher, 4.52
- P17R — higher, 3.17
- P17W — higher, 2.3
- P17S — higher, 3.62
- P17N — higher, 3.21
- P17T — higher, 3.81
- P17V — higher, 3.95
- P17M — higher, 3.68
- P17Q — higher, 4.36
- P17K — higher, 4.13
- P17A — higher, 3.97
- P17G — higher, 3.74
- P17F — higher, 3.03
- K13Y — higher, 3.5
- K13E — higher, 4.69
- K13S — higher, 4.14
- K13N — higher, 4.03
- K13M — higher, 3.05
- K13D — higher, 4.88
- K13A — higher, 3.98
- K13L — higher, 2.96
- K13R — higher, 3.01
- K13H — higher, 3.56
- K13I — higher, 2.33
- K13P — higher, 4.43
- K13V — higher, 3.42
- K13G — higher, 4.33
- K13T — higher, 4.06
- K13F — lower, 2.11
- K13C — higher, 3.24
- K13Q — higher, 4.14
- K10R — higher, 3.03
- K10G — higher, 3.78
- K10I — lower, 2.13
- K10Q — higher, 3.65
- K10T — higher, 3.46
- K10D — higher, 4.56
- K10H — higher, 3.48
- K10C — higher, 3.66
- K10P — higher, 4.17
- K10Y — higher, 2.98
- K10W — lower, 2.17
- K10L — higher, 2.55
- K10S — higher, 4.01
- K10N — higher, 4.37
- K10V — higher, 2.7
- K10E — higher, 4.5
- K10M — higher, 2.95
- K10A — higher, 4.61
- K10F — lower, 2.18
